Assay results: US10253076B2, “Peptides and combination of peptides for use in immunotherapy against ovarian cancer and other cancers” (immatics biotechnologies GmbH, priority 2015, dated 2019)

Experiments:
CD8+ T cells = experiment: In vitro immunogenicity: T-cell priming with aAPCs loaded with peptide/MHC and anti-CD28, pMHC multimer readout; assay type: cell-based, human; conditions: for Wells positive [%]: HLA-A*02 restricted peptides; for wells: percentage of positive wells
Experimental: In an aspect, the peptides are pre-screened for immunogenicity before being included in the warehouse. By way of example, and not limitation, the immunogenicity of the peptides included in the warehouse is determined by a method comprising in vitro T-cell priming through repeated stimulations of CD8+ T cells from healthy donors with artificial antigen presenting cells loaded with peptide/MHC complexes and anti-CD28 antibody.
In order to obtain information regarding the immunogenicity of the TUMAPs of the present invention, the inventors performed investigations using an in vitro T-cell priming assay based on repeated stimulations of CD8+ T cells with artificial antigen presenting cells (aAPCs) loaded with peptide/MHC complexes and anti-CD28 antibody.
In order to perform in vitro stimulations by artificial antigen presenting cells loaded with peptide-MHC complex (pMHC) and anti-CD28 antibody, the inventors first isolated CD8+ T cells from fresh HLA-A*02 leukapheresis products via positive selection using CD8 microbeads (Miltenyi Biotec, Bergisch-Gladbach, Germany) of healthy donors obtained from the University clinics Mannheim, Germany, after informed consent.
PBMCs and isolated CD8+ lymphocytes were incubated in T-cell medium (TCM) until use consisting of RPMI-Glutamax (Invitrogen, Karlsruhe, Germany) supplemented with 10% heat inactivated human AB serum (PAN-Biotech, Aidenbach, Germany), 100 U/ml Penicillin/100 μg/ml Streptomycin (Cambrex, Cologne, Germany), 1 mM sodium pyruvate (CC Pro, Oberdorla, Germany), 20 μg/ml Gentamycin (Cambrex). 2.5 ng/ml IL-7 (PromoCell, Heidelberg, Germany) and 10 U/ml IL-2 (Novartis Pharma, Nürnberg, Germany) were also added to the TCM at this step.
Generation of pMHC/anti-CD28 coated beads, T-cell stimulations and readout was performed in a highly defined in vitro system using four different pMHC molecules per stimulation condition and 8 different pMHC molecules per readout condition.
The purified co-stimulatory mouse IgG2a anti human CD28 Ab 9.3 (Jung et al., 1987) was chemically biotinylated using Sulfo-N-hydroxysuccinimidobiotin as recommended by the manufacturer (Perbio, Bonn, Germany). Beads used were 5.6 μm diameter streptavidin coated polystyrene particles (Bangs Laboratories, Illinois, USA).
pMHC used for positive and negative control stimulations were A*0201/MLA-001 (peptide […] (SEQ ID NO. 664) from modified Melan-A/MART-1) and A*0201/DDX5-001 ([…] from DDX5, SEQ ID NO. 665), respectively.
800.000 beads/200 μl were coated in 96-well plates in the presence of 4×12.5 ng different biotin-pMHC, washed and 600 ng biotin anti-CD28 were added subsequently in a volume of 200 μl. Stimulations were initiated in 96-well plates by co-incubating […] CD8+ T cells with 2×10^5 washed coated beads in 200 μl TCM supplemented with 5 ng/ml IL-12 (PromoCell) for 3 days at 37° C. Half of the medium was then exchanged by fresh TCM supplemented with 80 U/ml IL-2 and incubating was continued for 4 days at 37° C. This stimulation cycle was performed for a total of three times. For the pMHC multimer readout using 8 different pMHC molecules per condition, a two-dimensional combinatorial coding approach was used as previously described (Andersen et al., 2012) with minor modifications encompassing coupling to 5 different fluorochromes. Finally, multimeric analyses were performed by staining the cells with Live/dead near IR dye (Invitrogen, Karlsruhe, Germany), CD8-FITC antibody clone SK1 (BD, Heidelberg, Germany) and fluorescent pMHC multimers. For analysis, a BD LSRII SORP cytometer equipped with appropriate lasers and filters was used. Peptide specific cells were calculated as percentage of total CD8+ cells. Evaluation of multimeric analysis was done using the FlowJo software (Tree Star, Oregon, USA). In vitro priming of specific multimer+ CD8+ lymphocytes was detected by comparing to negative control stimulations. […]

HLA-A*02:01 = HLA-A*02:01 (Homo sapiens, UniProt P04439, D140Y/D185E/D98H/E176V/E277Q/G131W/G231S/I119V/I121R/I166T/I218V/L300P/L318F/N151K/N90K/P208A/P217A/Q86G/Q94H/R138H/R169H/T345S); experiment: MHC binding assay (UV-ligand exchange, beta2m ELISA, peptide exchange yield); conditions: binding of HLA-class I restricted peptides to HLA-A*02:01, ranged by peptide exchange yield (UV-ligand exchange, β2m ELISA)
Procedure, shortened: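 Readout is a β2m ELISA: stabilized complexes captured on streptavidin, detected with HRP-conjugated anti-β2m and TMB at 450 nm, reporting peptide exchange yield. Complexes come from UV-light cleavage of a conditional ligand in HLA-A*02:01 and replacement by the candidate peptide, samples diluted 100-fold.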

Row | Substance | donors (CD8+ T cells; HLA class I peptides, percentage of positive donors) | Wells positive [%] (CD8+ T cells) | Peptide exchange (HLA-A*02:01) | wells (CD8+ T cells; HLA class I peptides)
1 | 652 (TLWYRAPEV; listed as Homo sapiens) [compound 652] | ++++ (> = 70% = ++++) | – | – | –
2 | 166 (YLNHLEPPV; listed as Homo sapiens) [compound 166] | – | ″++++″ (> = 70% = ++++) | ″+++″ (≥50% = +++) | –
3 | 511 (FLDPYCSASV; listed as Homo sapiens) [compound 511] | – | ″+″ (<20% = +) | ″++″ (≥20% = ++) | –
4 | 499 (KIFDIDEAEEGV; listed as Homo sapiens) [compound 499] | – | ″+″ (<20% = +) | ″++″ (≥20% = ++) | –
5 | 143 (LLLDITPEI; listed as Homo sapiens) [compound 143] | – | ″+″ (<20% = +) | ″++++″ (≥75% = ++++) | –
6 | 199 (ALQDVPLSSV; listed as Homo sapiens) [compound 199] | – | ″+″ (<20% = +) | ″+++″ (≥50% = +++) | –
7 | 60 (SLTIDGIYYV; listed as Homo sapiens) [compound 60] | – | ″++++″ (> = 70% = ++++) | ″++++″ (≥75% = ++++) | –
8 | 113 (GLLPTPLFGV; listed as Homo sapiens) [compound 113] | – | ″+″ (<20% = +) | ″+++″ (≥50% = +++) | –
9 | 247 (VLLPNDLLEKV; listed as Homo sapiens) [compound 247] | – | ″+″ (<20% = +) | ″+++″ (≥50% = +++) | –
10 | 38 (FLLEDDIHVS; listed as Homo sapiens) [compound 38] | – | ″+″ (<20% = +) | ″+++″ (≥50% = +++) | –
11 | 79 (SLFIGEKAVLL; listed as Homo sapiens) [compound 79] | – | ″+″ (<20% = +) | ″+++″ (≥50% = +++) | –
12 | 118 (KLIDNNINV; listed as Homo sapiens) [compound 118] | – | ″+″ (<20% = +) | ″+++″ (≥50% = +++) | –
13 | 150 (RLWEEGEELEL; listed as Homo sapiens) [compound 150] | – | ″+″ (<20% = +) | ″+++″ (≥50% = +++) | –
14 | 36 (YVLEDLEVTV; listed as Homo sapiens) [compound 36] | – | ″+″ (<20% = +) | ″++″ (≥20% = ++) | –
15 | 603 (FLIEPEHVNTV; listed as Homo sapiens) [compound 603] | – | ″+″ (<20% = +) | ″++″ (≥20% = ++) | –
16 | 443 (GLWEIENNPTV; listed as Homo sapiens) [compound 443] | – | ″+″ (<20% = +) | ″+++″ (≥50% = +++) | –
17 | 56 (KLYEGIPVLL; listed as Homo sapiens) [compound 56] | – | ″+″ (<20% = +) | ″++++″ (≥75% = ++++) | –
18 | 662 (KIQEILTQV; listed as Homo sapiens) [compound 662] | – | – | – | + (<20% = +)
19 | 8 (FTLGNVVGMYL; listed as Homo sapiens) [compound 8] | – | ″+″ (<20% = +) | ″++++″ (≥75% = ++++) | –

Row | Substance | donors (CD8+ T cells; HLA class I peptides, percentage of positive donors) | Wells positive [%] (CD8+ T cells) | Peptide exchange (HLA-A*02:01) | wells (CD8+ T cells; HLA class I peptides)
20 | 141 (YLDFSNNRL; listed as Homo sapiens) [compound 141] | – | ″+″ (<20% = +) | ″++″ (≥20% = ++) | –
21 | 384 (ILFANPNIFV; listed as Homo sapiens) [compound 384] | – | ″+″ (<20% = +) | ″+++″ (≥50% = +++) | –
22 | 3 (SLASKLTTL; listed as Homo sapiens) [compound 3] | – | ″+″ (<20% = +) | ″++++″ (≥75% = ++++) | –
23 | 283 (ALYIGDGYVIHLA; listed as Homo sapiens) [compound 283] | – | – | ″+++″ (≥50% = +++) | + (<20% = +)
24 | 460 (AMLEKNYKL; listed as Homo sapiens) [compound 460] | – | ″+″ (<20% = +) | ″++++″ (≥75% = ++++) | –
25 | 489 (KMWEELPEVV; listed as Homo sapiens) [compound 489] | – | ″+″ (<20% = +) | ″+++″ (≥50% = +++) | –
26 | 11 (KIFEMLEGV; listed as Homo sapiens) [compound 11] | – | ″+″ (<20% = +) | ″+++″ (≥50% = +++) | –
27 | 48 (ALAELYEDEV; listed as Homo sapiens) [compound 48] | – | ″+″ (<20% = +) | ″+++″ (≥50% = +++) | –
28 | 319 (SLEPQIQPV; listed as Homo sapiens) [compound 319] | – | ″+″ (<20% = +) | ″++″ (≥20% = ++) | –
29 | 659 (ILFPDIIARA; listed as Homo sapiens) [compound 659] | – | – | – | + (<20% = +)
30 | 663 (KIQEMQHFL; listed as Homo sapiens) [compound 663] | – | – | – | + (<20% = +)
31 | 2 (SLLEADPFL; listed as Homo sapiens) [compound 2] | – | ″+″ (<20% = +) | ″+++″ (≥50% = +++) | –
32 | 170 (RLQETLSAA; listed as Homo sapiens) [compound 170] | – | – | ″+++″ (≥50% = +++) | –
33 | 451 (LLLLDTVTMQV; listed as Homo sapiens) [compound 451] | – | – | ″++″ (≥20% = ++) | –
34 | 359 (YLLPESVDL; listed as Homo sapiens) [compound 359] | – | – | ″+++″ (≥50% = +++) | –
35 | 263 (LLVSNLDFGV; listed as Homo sapiens) [compound 263] | – | – | ″+++″ (≥50% = +++) | –
36 | 322 (TLMTSLPAL; listed as Homo sapiens) [compound 322] | – | – | ″+++″ (≥50% = +++) | –
37 | 577 (VMFEDGVLMRL; listed as Homo sapiens) [compound 577] | – | – | ″+++″ (≥50% = +++) | –
38 | 57 (TLAELQPPVQL; listed as Homo sapiens) [compound 57] | – | – | ″+++″ (≥50% = +++) | –
